Several values for one entry are separate records, joined by “and”; a condition that tells them apart may be missing. Equal entries are not always repeated.
Tests used:
[1] = biological target: MtrR‐His6 (small protein MtrR with a C‐terminal His‐tag, heterologously expressed in Escherichia coli) (Methanosarcina mazei Gö1); test: SEC; IMAC‐purified MtrR‐His6 on an Enrich SEC 70 column, detection at 214 nm, calibrated with a standard protein mixture; phosphate buffer (50 mM sodium phosphate, 300 mM NaCl, pH 8.0); peaks at 10 and 13 mL
[2] = biological target: soluble domain of the MtrA subunit (M1 – S168), strep‐tagged, RED‐labeled (Methanosarcina mazei Gö1) (UniProt O59640); test: MST; 20 nM RED‐labeled strep‐MtrA with MtrR‐His6 in 16 concentrations (calculated on monomeric molecular mass); standard capillaries, 100% excitation power, medium MST power; MO.AFFINITY analysis; two biological replicates
Sequence of UniProt O59640 (O59640 1-168): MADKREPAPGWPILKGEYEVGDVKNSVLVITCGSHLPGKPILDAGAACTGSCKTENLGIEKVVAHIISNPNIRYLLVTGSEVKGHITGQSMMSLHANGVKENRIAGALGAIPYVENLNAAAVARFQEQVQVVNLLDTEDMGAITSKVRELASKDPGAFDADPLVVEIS

Substance: MtrR‐His6 (small protein MtrR with a C‐terminal His‐tag, heterologously expressed in Escherichia coli) (natural protein)
- stoichiometry N [1]: 2 and < 6
- Kd [2]: 110 nM

— publication PMC13370731
